Data: US20230235013A1 (MABSOLVE, published 2023)

B1: anti-CD20 (rituximab) human IgG1 L234D/L235K/G236R (antibody)
heavy: QVQLQQPGAELVKPGASVKMSCKASGYTFTSYNMHWVKQTPGRGLEWIGAIYPGNGDTSYNQKFKGKATLTADKSSSTAYMQLSSLTSEDSAVYYCARSTYYGGDWYFNVWGAGTTVTVSSASTKGPSVFPLAPSSKSTSGGTAALGCLVKDYFPEPVTVSWNSGALTSGVHTFPAVLQSSGLYSLSSVVTVPSSSLGTQTYICNVNHKPSNTKVDKKVEPKSCDKTHTCPPCPAPEDKRGPSVFLFPPKPKDTLMISRTPEVTCVVVDVSHEDPEVKFNWYVDGVEVHNAKTKPREEQYNSTYRVVSVLTVLHQDWLNGKEYKCKVSNKALPAPIEKTISKAKGQPREPQVYTLPPSRDELTKNQVSLTCLVKGFYPSDIAVEWESNGQPENNYKTTPPVLDSDGSFFLYSKLTVDKSRWQQGNVFSCSVMHEALHNHYTQKSLSLSPGK
light: QIVLSQSPAILSASPGEKVTMTCRASSSVSYIHWFQQKPGSSPKPWIYATSNLASGVPVRFSGSGSGTSYSLTISRVEAEDAATYYCQQWTSNPPTFGGGTKLEIKRTVAAPSVFIFPPSDEQLKSGTASVVCLLNNFYPREAKVQWKVDNALQSGNSQESVTEQDSKDSTYSLSSTLTLSKADYEKHKVYACEVTHQGLSSPVTKSFNRGEC
notes: EU numbering; also called 2-7; 1-23; copies: 2 + 2
B2: anti-CD20 (rituximab) human IgG1 L234R/L235D/G236R (antibody)
heavy: QVQLQQPGAELVKPGASVKMSCKASGYTFTSYNMHWVKQTPGRGLEWIGAIYPGNGDTSYNQKFKGKATLTADKSSSTAYMQLSSLTSEDSAVYYCARSTYYGGDWYFNVWGAGTTVTVSSASTKGPSVFPLAPSSKSTSGGTAALGCLVKDYFPEPVTVSWNSGALTSGVHTFPAVLQSSGLYSLSSVVTVPSSSLGTQTYICNVNHKPSNTKVDKKVEPKSCDKTHTCPPCPAPERDRGPSVFLFPPKPKDTLMISRTPEVTCVVVDVSHEDPEVKFNWYVDGVEVHNAKTKPREEQYNSTYRVVSVLTVLHQDWLNGKEYKCKVSNKALPAPIEKTISKAKGQPREPQVYTLPPSRDELTKNQVSLTCLVKGFYPSDIAVEWESNGQPENNYKTTPPVLDSDGSFFLYSKLTVDKSRWQQGNVFSCSVMHEALHNHYTQKSLSLSPGK
light: QIVLSQSPAILSASPGEKVTMTCRASSSVSYIHWFQQKPGSSPKPWIYATSNLASGVPVRFSGSGSGTSYSLTISRVEAEDAATYYCQQWTSNPPTFGGGTKLEIKRTVAAPSVFIFPPSDEQLKSGTASVVCLLNNFYPREAKVQWKVDNALQSGNSQESVTEQDSKDSTYSLSSTLTLSKADYEKHKVYACEVTHQGLSSPVTKSFNRGEC
notes: EU numbering; copies: 2 + 2
B3: anti-CD20 (rituximab) human IgG1 L234R/L235E/G236R (antibody)
heavy: QVQLQQPGAELVKPGASVKMSCKASGYTFTSYNMHWVKQTPGRGLEWIGAIYPGNGDTSYNQKFKGKATLTADKSSSTAYMQLSSLTSEDSAVYYCARSTYYGGDWYFNVWGAGTTVTVSSASTKGPSVFPLAPSSKSTSGGTAALGCLVKDYFPEPVTVSWNSGALTSGVHTFPAVLQSSGLYSLSSVVTVPSSSLGTQTYICNVNHKPSNTKVDKKVEPKSCDKTHTCPPCPAPERERGPSVFLFPPKPKDTLMISRTPEVTCVVVDVSHEDPEVKFNWYVDGVEVHNAKTKPREEQYNSTYRVVSVLTVLHQDWLNGKEYKCKVSNKALPAPIEKTISKAKGQPREPQVYTLPPSRDELTKNQVSLTCLVKGFYPSDIAVEWESNGQPENNYKTTPPVLDSDGSFFLYSKLTVDKSRWQQGNVFSCSVMHEALHNHYTQKSLSLSPGK
light: QIVLSQSPAILSASPGEKVTMTCRASSSVSYIHWFQQKPGSSPKPWIYATSNLASGVPVRFSGSGSGTSYSLTISRVEAEDAATYYCQQWTSNPPTFGGGTKLEIKRTVAAPSVFIFPPSDEQLKSGTASVVCLLNNFYPREAKVQWKVDNALQSGNSQESVTEQDSKDSTYSLSSTLTLSKADYEKHKVYACEVTHQGLSSPVTKSFNRGEC
notes: EU numbering; also called 2-37; copies: 2 + 2
B4: anti-CD20 (rituximab) human IgG1 L234T/L235R/G236R (antibody)
heavy: QVQLQQPGAELVKPGASVKMSCKASGYTFTSYNMHWVKQTPGRGLEWIGAIYPGNGDTSYNQKFKGKATLTADKSSSTAYMQLSSLTSEDSAVYYCARSTYYGGDWYFNVWGAGTTVTVSSASTKGPSVFPLAPSSKSTSGGTAALGCLVKDYFPEPVTVSWNSGALTSGVHTFPAVLQSSGLYSLSSVVTVPSSSLGTQTYICNVNHKPSNTKVDKKVEPKSCDKTHTCPPCPAPETRRGPSVFLFPPKPKDTLMISRTPEVTCVVVDVSHEDPEVKFNWYVDGVEVHNAKTKPREEQYNSTYRVVSVLTVLHQDWLNGKEYKCKVSNKALPAPIEKTISKAKGQPREPQVYTLPPSRDELTKNQVSLTCLVKGFYPSDIAVEWESNGQPENNYKTTPPVLDSDGSFFLYSKLTVDKSRWQQGNVFSCSVMHEALHNHYTQKSLSLSPGK
light: QIVLSQSPAILSASPGEKVTMTCRASSSVSYIHWFQQKPGSSPKPWIYATSNLASGVPVRFSGSGSGTSYSLTISRVEAEDAATYYCQQWTSNPPTFGGGTKLEIKRTVAAPSVFIFPPSDEQLKSGTASVVCLLNNFYPREAKVQWKVDNALQSGNSQESVTEQDSKDSTYSLSSTLTLSKADYEKHKVYACEVTHQGLSSPVTKSFNRGEC
notes: EU numbering; also called 2-61; copies: 2 + 2
B5: anti-CD20 (rituximab) human IgG1 L234K/L235V/G236R (antibody)
heavy: QVQLQQPGAELVKPGASVKMSCKASGYTFTSYNMHWVKQTPGRGLEWIGAIYPGNGDTSYNQKFKGKATLTADKSSSTAYMQLSSLTSEDSAVYYCARSTYYGGDWYFNVWGAGTTVTVSSASTKGPSVFPLAPSSKSTSGGTAALGCLVKDYFPEPVTVSWNSGALTSGVHTFPAVLQSSGLYSLSSVVTVPSSSLGTQTYICNVNHKPSNTKVDKKVEPKSCDKTHTCPPCPAPEKVRGPSVFLFPPKPKDTLMISRTPEVTCVVVDVSHEDPEVKFNWYVDGVEVHNAKTKPREEQYNSTYRVVSVLTVLHQDWLNGKEYKCKVSNKALPAPIEKTISKAKGQPREPQVYTLPPSRDELTKNQVSLTCLVKGFYPSDIAVEWESNGQPENNYKTTPPVLDSDGSFFLYSKLTVDKSRWQQGNVFSCSVMHEALHNHYTQKSLSLSPGK
light: QIVLSQSPAILSASPGEKVTMTCRASSSVSYIHWFQQKPGSSPKPWIYATSNLASGVPVRFSGSGSGTSYSLTISRVEAEDAATYYCQQWTSNPPTFGGGTKLEIKRTVAAPSVFIFPPSDEQLKSGTASVVCLLNNFYPREAKVQWKVDNALQSGNSQESVTEQDSKDSTYSLSSTLTLSKADYEKHKVYACEVTHQGLSSPVTKSFNRGEC
notes: EU numbering; also called 2-26; 1-91; copies: 2 + 2
B6: anti-CD20 (rituximab) human IgG1 L234K/L235R/G236R (antibody)
heavy: QVQLQQPGAELVKPGASVKMSCKASGYTFTSYNMHWVKQTPGRGLEWIGAIYPGNGDTSYNQKFKGKATLTADKSSSTAYMQLSSLTSEDSAVYYCARSTYYGGDWYFNVWGAGTTVTVSSASTKGPSVFPLAPSSKSTSGGTAALGCLVKDYFPEPVTVSWNSGALTSGVHTFPAVLQSSGLYSLSSVVTVPSSSLGTQTYICNVNHKPSNTKVDKKVEPKSCDKTHTCPPCPAPEKRRGPSVFLFPPKPKDTLMISRTPEVTCVVVDVSHEDPEVKFNWYVDGVEVHNAKTKPREEQYNSTYRVVSVLTVLHQDWLNGKEYKCKVSNKALPAPIEKTISKAKGQPREPQVYTLPPSRDELTKNQVSLTCLVKGFYPSDIAVEWESNGQPENNYKTTPPVLDSDGSFFLYSKLTVDKSRWQQGNVFSCSVMHEALHNHYTQKSLSLSPGK
light: QIVLSQSPAILSASPGEKVTMTCRASSSVSYIHWFQQKPGSSPKPWIYATSNLASGVPVRFSGSGSGTSYSLTISRVEAEDAATYYCQQWTSNPPTFGGGTKLEIKRTVAAPSVFIFPPSDEQLKSGTASVVCLLNNFYPREAKVQWKVDNALQSGNSQESVTEQDSKDSTYSLSSTLTLSKADYEKHKVYACEVTHQGLSSPVTKSFNRGEC
notes: EU numbering; also called 2-23; 1-88; copies: 2 + 2
B7: anti-CD20 (rituximab) human IgG1 L234Q/L235V/G236R (antibody)
heavy: QVQLQQPGAELVKPGASVKMSCKASGYTFTSYNMHWVKQTPGRGLEWIGAIYPGNGDTSYNQKFKGKATLTADKSSSTAYMQLSSLTSEDSAVYYCARSTYYGGDWYFNVWGAGTTVTVSSASTKGPSVFPLAPSSKSTSGGTAALGCLVKDYFPEPVTVSWNSGALTSGVHTFPAVLQSSGLYSLSSVVTVPSSSLGTQTYICNVNHKPSNTKVDKKVEPKSCDKTHTCPPCPAPEQVRGPSVFLFPPKPKDTLMISRTPEVTCVVVDVSHEDPEVKFNWYVDGVEVHNAKTKPREEQYNSTYRVVSVLTVLHQDWLNGKEYKCKVSNKALPAPIEKTISKAKGQPREPQVYTLPPSRDELTKNQVSLTCLVKGFYPSDIAVEWESNGQPENNYKTTPPVLDSDGSFFLYSKLTVDKSRWQQGNVFSCSVMHEALHNHYTQKSLSLSPGK
light: QIVLSQSPAILSASPGEKVTMTCRASSSVSYIHWFQQKPGSSPKPWIYATSNLASGVPVRFSGSGSGTSYSLTISRVEAEDAATYYCQQWTSNPPTFGGGTKLEIKRTVAAPSVFIFPPSDEQLKSGTASVVCLLNNFYPREAKVQWKVDNALQSGNSQESVTEQDSKDSTYSLSSTLTLSKADYEKHKVYACEVTHQGLSSPVTKSFNRGEC
notes: EU numbering; copies: 2 + 2

Tests used:
[1] = biological target: T1, human FcRn (R&D Systems Cat. No. 8639-Fc) (human, UniProt P55899 24-297; P61769 21-119); experiment: SPR, FcRn captured; Mean
T1 sequence (P55899 24-297 limits assumed, chain 1 of 2): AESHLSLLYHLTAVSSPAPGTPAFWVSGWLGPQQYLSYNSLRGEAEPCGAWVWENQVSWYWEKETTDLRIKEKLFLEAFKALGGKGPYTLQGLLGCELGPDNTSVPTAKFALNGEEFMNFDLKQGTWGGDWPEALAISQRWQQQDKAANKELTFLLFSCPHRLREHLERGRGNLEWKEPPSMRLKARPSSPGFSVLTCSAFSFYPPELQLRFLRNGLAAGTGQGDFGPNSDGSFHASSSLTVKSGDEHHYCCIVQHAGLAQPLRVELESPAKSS
T1 sequence (P61769 21-119 limits assumed, chain 2 of 2): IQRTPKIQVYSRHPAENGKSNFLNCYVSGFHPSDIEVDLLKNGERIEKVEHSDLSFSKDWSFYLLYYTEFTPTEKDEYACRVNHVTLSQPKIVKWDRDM

[2] = biological target: T1, human FcRn (R&D Systems Cat. No. …); experiment: SPR, FcRn captured; Expt 1
[3] = biological target: T1, human FcRn (R&D Systems Cat. No. …); experiment: SPR, FcRn captured; Expt 3
[4] = biological target: T1, human FcRn (R&D Systems Cat. No. …); experiment: SPR, FcRn captured; Expt 2
[5] = biological target: T2, Human C1q (Sigma Cat. No. 20476), HRP-labelled (human, UniProt P02745 23-245; P02746 28-253; P02747 29-245); experiment: ELISA, antibody coated, HRP-C1q; Expt 1, buffer alone 0.061
T2 construct: Coupled to horse-radish peroxidase with Lightning-Link kit; also called HRP-labelled C1q

Binder | Corrected and normalised response (% of wild-type reference) [1] | Corrected and normalised response (% of wild-type reference) [2] | Corrected and normalised response (% of wild-type reference) [3] | Corrected and normalised response (% of wild-type reference) [4] | Mean Absorbance [5]
B1 | 94.3 % of wild-type reference | 94.9 % of wild-type reference | 94.1 % of wild-type reference | 93.7 % of wild-type reference | 0.049 absorbance (450 nm)
B2 | 95.6 % of wild-type reference | 95.5 % of wild-type reference | 96 % of wild-type reference | 95.4 % of wild-type reference | 0.038 absorbance (450 nm)
B3 | 98.4 % of wild-type reference | 99 % of wild-type reference | 97.8 % of wild-type reference | 98.6 % of wild-type reference | 0.048 absorbance (450 nm)
B4 | – | – | – | – | 0.047 absorbance (450 nm)
B5 | 101 % of wild-type reference | 101 % of wild-type reference | 100 % of wild-type reference | 100 % of wild-type reference | 0.073 absorbance (450 nm)
B6 | 100 % of wild-type reference | 101 % of wild-type reference | 99.5 % of wild-type reference | 99.6 % of wild-type reference | 0.059 absorbance (450 nm)
B7 | 97.1 % of wild-type reference | 97.3 % of wild-type reference | 97.4 % of wild-type reference | 96.6 % of wild-type reference | 0.032 absorbance (450 nm)
